# B1: Cyanine-5 labeled N43S Fluc-Bpe (natural protein, Bordetella pertussis)
# chain: MLTYAPLNFIAIGIGATLGAWLRWVLGLKLNGAGWPWGTLTASLVGGYLIGVMVALIASHPEWPAWIRLAAVTGFLGGLTTFSTFSAETVDMLSRGVYATAAAYAGASLAGSLAMTGLGLATVRLLLC
# modifications: Cy5 (Cyanine5-maleimide) on the cysteine of R128C
# Biological target: the molecule itself
# Experiment: single-molecule photobleaching analysis
protein,measurement,value
B1,stoichiometry N,2

# — article PMC10666096 (Proceedings of the National Academy of Sciences of the …, 2023)
